Source: publication PMC3293257

Target: FBF-1/CSR-1 heterodimer (GST-FBF-1 with His6-CSR-1(MID-PIWI)) (C. elegans) (UniProt Q9N5M6)
Experiment: pull-down

stoichiometry N: 1
Substance: Recombinant EFT-3 (natural protein)
